Earlier results, collected in PMC7417478.

Columns and labels:
[1] = molecular target: FGFR2 (Homo sapiens) (UniProt P21802)
[2] = molecular target: FGFR1 (Homo sapiens) (UniProt P11362)
Chain of UniProt P11362 (P11362 22-376): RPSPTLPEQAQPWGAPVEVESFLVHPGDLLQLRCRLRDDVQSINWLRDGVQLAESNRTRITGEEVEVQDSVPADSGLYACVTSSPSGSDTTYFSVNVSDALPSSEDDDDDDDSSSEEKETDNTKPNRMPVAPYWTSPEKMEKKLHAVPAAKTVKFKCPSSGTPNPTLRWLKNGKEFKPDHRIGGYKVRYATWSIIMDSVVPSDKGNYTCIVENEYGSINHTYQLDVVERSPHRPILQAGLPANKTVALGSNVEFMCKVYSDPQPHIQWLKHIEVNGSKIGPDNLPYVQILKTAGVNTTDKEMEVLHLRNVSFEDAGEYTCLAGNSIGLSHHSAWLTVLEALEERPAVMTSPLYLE

Chain of UniProt P21802 (P21802 22-377): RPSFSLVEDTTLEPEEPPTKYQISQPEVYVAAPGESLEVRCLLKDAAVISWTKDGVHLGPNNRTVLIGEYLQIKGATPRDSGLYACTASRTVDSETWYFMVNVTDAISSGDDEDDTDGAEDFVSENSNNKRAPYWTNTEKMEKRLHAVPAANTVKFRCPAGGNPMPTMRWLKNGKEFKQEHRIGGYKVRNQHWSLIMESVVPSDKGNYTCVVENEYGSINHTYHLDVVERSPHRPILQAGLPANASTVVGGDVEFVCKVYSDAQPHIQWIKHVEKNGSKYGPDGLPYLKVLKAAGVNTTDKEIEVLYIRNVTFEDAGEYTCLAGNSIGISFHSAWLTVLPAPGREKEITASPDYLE

Kd [1]: 1 nM
Kd [2]: 1 nM
Substance: FGF5 (from UniProt P12034)
